# Source: patent US10005846 (LIFEARC, dated 2018)
# Substitutions are numbered along the chain they refer to.
# T1: rat TG2 (rat, UniProt Q9WVJ6 1-686, limits assumed)
# T1 sequence: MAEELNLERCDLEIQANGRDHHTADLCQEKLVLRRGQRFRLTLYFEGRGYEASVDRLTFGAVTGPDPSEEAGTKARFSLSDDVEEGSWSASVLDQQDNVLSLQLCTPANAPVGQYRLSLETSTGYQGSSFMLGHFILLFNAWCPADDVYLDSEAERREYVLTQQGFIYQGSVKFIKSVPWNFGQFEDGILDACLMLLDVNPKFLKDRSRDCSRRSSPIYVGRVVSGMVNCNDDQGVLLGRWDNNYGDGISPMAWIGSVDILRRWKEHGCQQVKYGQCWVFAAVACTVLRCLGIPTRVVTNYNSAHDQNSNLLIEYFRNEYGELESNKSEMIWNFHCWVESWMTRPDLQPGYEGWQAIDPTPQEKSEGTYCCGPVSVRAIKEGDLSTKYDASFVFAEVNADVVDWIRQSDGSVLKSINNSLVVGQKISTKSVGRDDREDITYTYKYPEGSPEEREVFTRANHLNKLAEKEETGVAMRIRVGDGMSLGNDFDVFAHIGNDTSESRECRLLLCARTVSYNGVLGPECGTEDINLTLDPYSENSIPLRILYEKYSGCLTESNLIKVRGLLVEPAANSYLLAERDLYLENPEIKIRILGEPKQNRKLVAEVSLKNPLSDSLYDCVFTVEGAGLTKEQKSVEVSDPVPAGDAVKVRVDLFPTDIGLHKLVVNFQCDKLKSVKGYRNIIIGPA
# T2: human transglutaminase type 2 (TG2) (human, UniProt P21980 1-687)
# T2 construct: Recombinant full-length human TG2 (Zedira; cat; T002 in the Biacore work); Also used here for the endogenous TG2 of HepG2 lysate and HK-2 cells; also called hTG2; rhTG2
# T2 sequence: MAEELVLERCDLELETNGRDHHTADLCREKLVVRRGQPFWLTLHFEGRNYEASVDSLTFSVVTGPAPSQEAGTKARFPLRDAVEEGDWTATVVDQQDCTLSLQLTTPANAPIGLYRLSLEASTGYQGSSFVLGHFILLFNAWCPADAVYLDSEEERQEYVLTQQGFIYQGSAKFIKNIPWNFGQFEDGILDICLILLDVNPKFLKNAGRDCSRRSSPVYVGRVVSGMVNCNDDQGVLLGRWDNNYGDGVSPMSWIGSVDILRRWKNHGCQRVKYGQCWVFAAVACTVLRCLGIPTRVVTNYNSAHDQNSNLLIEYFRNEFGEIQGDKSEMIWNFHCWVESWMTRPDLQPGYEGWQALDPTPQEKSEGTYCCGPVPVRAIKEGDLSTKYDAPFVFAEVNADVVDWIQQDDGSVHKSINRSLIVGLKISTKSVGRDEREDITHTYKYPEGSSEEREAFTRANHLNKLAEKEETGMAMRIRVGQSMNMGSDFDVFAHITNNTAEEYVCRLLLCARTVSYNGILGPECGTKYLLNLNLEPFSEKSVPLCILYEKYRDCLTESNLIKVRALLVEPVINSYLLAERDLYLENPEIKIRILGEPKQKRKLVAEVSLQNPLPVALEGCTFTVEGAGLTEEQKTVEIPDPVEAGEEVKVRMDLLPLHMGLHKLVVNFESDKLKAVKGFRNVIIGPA
# T3: cynomolgus monkey TG2 (cynomolgus monkey, UniProt A0A2K5VXI8 1-687)
# T3 construct: Bought recombinant protein; also called cynomogulus monkey TG2; cyano TG2
# T3 sequence: T2 sequence with E4D, Q157R, N177S, H413S, I421T, Y528H, V542I
# B1: DH2 murine monoclonal antibody (antibody, V domains shown)
# VH: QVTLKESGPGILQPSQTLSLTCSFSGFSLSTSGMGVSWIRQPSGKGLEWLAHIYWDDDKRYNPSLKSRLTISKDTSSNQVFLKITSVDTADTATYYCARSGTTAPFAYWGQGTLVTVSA
# VL: QIVLTQSPAIMSASPGEKVTMTCSASSSVSYMYWYQQKPGSSPRLLIYDTSNLASGVPVRFSGSGSGTSYSLTISRMEAEDAATFYCQQWSSSPLTFGAGTKLELK
# notes: Mouse hybridoma IgG; heavy chain amplified with primer MHCG2B, kappa light chain; also called mDH001
# B2: cBB001 chimeric antibody (murine BB7 variable regions) (antibody, human IgG1, V domains shown)
# VH: AVQLVESGGGLVKPGGSLKLSCAASGIIFSSSAMSWVRQTPEKRLEWVATISSGGRSTYYPDSVKGRFTVSRDSAKNTLYLQMDSLRSEDTAIYYCAKLISPYWGQGTTLTVSS
# VL: AIKMTQSPSSMYASLGERVIITCKASQDINSYLTWFQQKPGKSPKTLIYLTNRLMDGVPSRFSGSGSGQEFLLTISGLEHEDMGIYYCLQYVDFPYTFGGGTKLEIK
# notes: also called chimeric BB7
# B3: cDH001 chimeric antibody (murine DH2 variable regions) (antibody, human IgG1, V domains shown)
# VH: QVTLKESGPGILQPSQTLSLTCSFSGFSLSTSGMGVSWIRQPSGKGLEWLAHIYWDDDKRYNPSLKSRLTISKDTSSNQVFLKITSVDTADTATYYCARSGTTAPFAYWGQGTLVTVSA
# VL: B1 VL
# Assays:
# [1] = target: T1, rat TG2; experiment: cell-based or functional assay
# [2] = target: T2, human transglutaminase type 2 (TG2); experiment: ELISA on immobilised human TG2; r2 0.9682; EC50 95% confidence range 0.03611 to 0.06410 [continued), panel B]
# Procedure: (§1) Antibody binding to human and cynomolgus monkey TG2 was determined in an ELISA assay. Clear polystyrene "Maxisorp" 96-well plates (Nunc) were coated with 50 ng purified human or cynomogulus monkey TG2 in 50 µl 0.05 M carbonate-bicarbonate buffer pH 9.6 at 4° C. overnight. Control wells were coated with 50 µl 100 µg/ml bovine serum albumin (BSA). Plates were washed 3× with 300 µl phosphate-buffered saline pH7.4 (PBS) containing 0.1% Tween 20 (PBST) and blocked with 300 µl 3% w/v Marvel skimmed milk in PBS for 1 hour at room temperature. After 3× wash with PBST, 50 µl protein-A purified chimeric or humanised anti-TG2 antibodies or human IgG1 kappa […] control antibody or CUB7402 (Abcam) were serially diluted 4-fold from a top concentration of 50 nM in PBS, and added to the plate in duplicate. […] After 3× washes with PBST, the plates were developed with 50 µl TMB substrate (Sigma) for 5 min at room temperature before stopping the reaction with 25 µl 0.5M H2SO4 and reading absorbance at 450 nm in a microtiter plate reader (BioTek EL808). Dose response curves were analysed and EC50 values and other statistical parameters determined using a 4-parameter logistical fit of the data (GraphPad Prism).
# [3] = target: T3, cynomolgus monkey TG2; experiment: ELISA on immobilised cynomolgus monkey TG2; r2 0.9383; EC50 95% confidence range 0.03303 to 0.08079 [panel B]
# Procedure: as §1
# [4] = target: T2, human transglutaminase type 2 (TG2); experiment: cell-based or functional assay
binder,measurement,setting,value
B1,"IC50, 3H-putrescine incorporation assay",[1],0.000223 mg/ml of IgG (to inhibit 1 ng of TG2)
same,"IC50 ratio, 3H-putrescine incorporation assay (DH2 on rat TG2 against AB-1 on human TG2)",[1],38 fold less active than AB-1 against human TG2
same,"IC50 ratio, 3H-putrescine incorporation assay (rat TG2 against human TG2, same antibody)",[1],~6 fold less active than against human TG2
B2,EC50,[2],48.1 pM
same,EC50,[3],51.7 pM
B3,"IC50 of enzymatic inhibition, dansylated lysine incorporation into N,N-dimethylated casein [continued), panel E]",[4],829000 pM
